{
  "source": "paper PMC4624055",
  "about": "(The Journal of allergy and clinical immunology, 2015)",
  "proteins": {"B1": {"name": "Bla g 5 (enzyme, Blattella germanica, UniProt O18598 1-204, looked up)", "chain": "MAPSYKLTYCPVKALGEPIRFLLSYGEKDFEDYRFQEGDWPNLKPSMPFGKTPVLEIDGKQTHQSVAISRYLGKQFGLSGKDDWENLEIDMIVDTISDFRAAIANYHYDADENSKQKKWDPLKKETIPYYTKKFDEVVKANGGYLAAGKLTWADFYFVAILDYLNHMAKEDLVANQPNLKALREKVLGLPAIKAWVAKRPPTDL"}, "B2": {"name": "Asc s 13 (enzyme, Ascaris suum, UniProt P46436 1-206, looked up)", "chain": "MPQYKLTYFDIRGLGEGARLIFHQAGVKFEDNRLKREDWPALKPKTPFGQLPLLEVDGEVLAQSAAIYRYLGRQFGLAGKTPMEEAQVDSIFDQFKDFMAELRPCFRVLAGFEEGDKEKVLKEVAVPARDKHLPLLEKFLAKSGSEYMVGKSVTWADLVITDSLASWESLIPDFLSGHLQLKKYIEHVRELPNIKKWIAERPKTPY"}},
  "molecular_target": "the molecule itself",
  "assay": "crystal structure",
  "data": [
    {"protein": "B1", "values": [
      {"measurement": "stoichiometry N", "value": 2}
    ]},
    {"protein": "B2", "values": [
      {"measurement": "stoichiometry N", "value": 2}
    ]}
  ]
}
